Consider one protein from article PMC10490032, “From Monoamine Oxidase Inhibition to Antiproliferative Activity: New Biological Perspectives for Polyamine Analogs” (Molecules, 2023).

Substrate in the data set: NCCC(=O)c1ccccc1N
In words: purified protein, by the assay type. The following applies: other: substrate, human recombinant MAO A; pH 7.4; 37.0 °C.

B1: human recombinant MAO A (Homo sapiens) (protein)
chain: MENQEKASIAGHMFDVVVIGGGISGLSAAKLLTEYGVSVLVLEARDRVGGRTYTIRNEHVDYVDVGGAYVGPTQNRILRLSKELGIETYKVNVSERLVQYVKGKTYPFRGAFPPVWNPIAYLDYNNLWRTIDNMGKEIPTDAPWEAQHADKWDKMTMKELIDKICWTKTARRFAYLFVNINVTSEPHEVSALWFLWYVKQCGGTTRIFSVTNGGQERKFVGGSGQVSERIMDLLGDQVKLNHPVTHVDQSSDNIIIETLNHEHYECKYVINAIPPTLTAKIHFRPELPAERNQLIQRLPMGAVIKCMMYYKEAFWKKKDYCGCMIIEDEDAPISITLDDTKPDGSLPAIMGFILARKADRLAKLHKEIRKKKICELYAKVLGSQEALHPVHYEEKNWCEEQYSGGCYTAYFPPGIMTQYGRVIRQPVGRIFFAGTETATKWSGYMEGAVEAGERAAREVLNGLGKVTEKDIWVQEPESKDVPAVEITHTFWERNLPSVSGLLKIIGFSTSVTALGFVLYKYKLLPRS
What is called Km is the substrate concentration at which the rate is half of its maximum. Regarding B1, the Km was 32 ± 11 µM.
